Drawing on patent US20140249076A1, “AMYLIN-CALCITONIN CHIMERIC PEPTIDES CONJUGATED TO DURATION ENHANCING MOIETIES” (AMYLIN PHARMACEUTICALS, LLC, priority 2011, published 2014), this text covers IC50 for eight molecules.

Numbered stars: 1 amine (or outer) side, 2 acyl side, 3 side chain; on linkers, the order of the positions; unused ones are H or OH. Side chains are listed from the residue outwards. Ends that are not written are not given here. γGlu = O=C(O)[C@H](CCC(=O)[*:2])N[*:1]

Experiment [1] has as its target CGRP receptor (SK-N-MC cell membranes) (UniProt Q16602). In words: displacement of 125I-human CGRP from SK-N-MC cell membranes.
Experiment [2] concerns the target rat C1a calcitonin receptor (rat) (UniProt P32214). In words: displacement of 125I-human calcitonin from C1a-HEK cell membranes.
Experiment [3] addresses amylin receptor (RNA membranes). Put plainly: displacement of 125I-rat amylin from RNA membranes.

Sequence of CGRP receptor (SK-N-MC cell membranes) (Q16602 23-461, chain 1 of 2): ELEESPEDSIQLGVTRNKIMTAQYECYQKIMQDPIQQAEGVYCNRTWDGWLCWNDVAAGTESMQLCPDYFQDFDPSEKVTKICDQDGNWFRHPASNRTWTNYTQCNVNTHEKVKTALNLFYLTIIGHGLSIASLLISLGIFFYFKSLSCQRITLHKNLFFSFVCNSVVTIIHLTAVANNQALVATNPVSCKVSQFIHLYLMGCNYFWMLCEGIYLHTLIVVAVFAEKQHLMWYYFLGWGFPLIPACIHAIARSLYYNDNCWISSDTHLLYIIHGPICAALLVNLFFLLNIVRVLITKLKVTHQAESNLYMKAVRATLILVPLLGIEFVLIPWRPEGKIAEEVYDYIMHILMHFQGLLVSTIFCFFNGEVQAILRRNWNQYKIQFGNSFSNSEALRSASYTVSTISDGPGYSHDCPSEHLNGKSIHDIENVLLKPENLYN
Sequence of CGRP receptor (SK-N-MC cell membranes) (O60894 27-148, chain 2 of 2, further chain): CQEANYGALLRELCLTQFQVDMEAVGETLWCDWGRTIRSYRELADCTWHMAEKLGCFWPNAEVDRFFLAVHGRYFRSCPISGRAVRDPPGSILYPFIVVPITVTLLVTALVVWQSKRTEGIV

B1: Cmpd 186 ([K^18ε-(γ-Glu(Nα-C16-Chain))]-Cmpd 17) (peptide)
peptide: KCNTATCALQRLAQELHK([γGlu-C16‑Chain])LQTYPRTNVGSNTY-NH2
modifications: ends and bridges not checked
B1: the IC50 came to 26.3 nM in experiment [1], 1.07 nM in experiment [2] and 0.806 nM in experiment [3].

B2: Cmpd 187 ([K^21ε-(γ-Glu(Nα-C16-Chain))]-Cmpd 17) (peptide)
peptide: KCNTATCALQRLAQELHRLQK([γGlu-C16‑Chain])YPRTNVGSNTY-NH2
modifications: ends and bridges not checked
For the molecule B2, the IC50 was 0.77 nM in experiment [1], 0.151 nM in experiment [2] and 0.446 nM in experiment [3].

B3: Cmpd 195 (Kε-(γ-Glu(Nα-C16-Chain))-Cmpd 17) (peptide)
peptide: K([γGlu-C16‑Chain])KCNTATCALQRLAQELHRLQTYPRTNVGSNTY-NH2
modifications: ends and bridges not checked
With B3, the IC50 in experiment [2] turned out to be 0.046 nM.

B4: Cmpd 17 (peptide)
peptide: KCNTATCALQRLAQELHRLQTYPRTNVGSNTY-NH2
modifications: ends and bridges not checked
Consider B4, for which the IC50 in experiment [2] stood at 0.095 nM.

B5: Cmpd 192 ([K^1ε-(γ-Glu(Nα-C16-Chain))]-Cmpd 17) (peptide)
peptide: K([γGlu-C16‑Chain])CNTATCALQRLAQELHRLQTYPRTNVGSNTY-NH2
modifications: ends and bridges not checked
With B5, in experiment [2], the IC50 was 0.07 nM.

B6: Cmpd 193 ([K^11ε(γ-Glu(Nα-C16-Chain))]-Cmpd 17) (peptide)
peptide: KCNTATCALQK([γGlu-C16‑Chain])LAQELHRLQTYPRTNVGSNTY-NH2
modifications: ends and bridges not checked
For B6, the results for the IC50 in experiment [1], in experiment [2] and in experiment [3] were 46.5 nM, 0.168 nM and 0.73 nM, respectively.

B7: Cmpd 188 ([K^24ε-(γ-Glu(Nα-C16-Chain))]-Cmpd 17) (peptide)
peptide: KCNTATCALQRLAQELHRLQTYPK([γGlu-C16‑Chain])TNVGSNTY-NH2
modifications: ends and bridges not checked
Regarding B7, the IC50 was 100 nM in experiment [1], 0.898 nM in experiment [2] and 1.61 nM in experiment [3].

B8: Cmpd 189 ([K^26ε-(γ-Glu(Nα-C16-Chain))]-Cmpd 17) (peptide)
peptide: KCNTATCALQRLAQELHRLQTYPRTK([γGlu-C16‑Chain])VGSNTY-NH2
modifications: ends and bridges not checked
For the molecule B8, the IC50 in experiment [1] was 75 nM; in experiment [2], 1.49 nM; in experiment [3], 4.01 nM.

One may read the IC50 as the concentration that inhibits the measured activity by half.
